The text below walks through data of the supplement of paper PMC10126150.

± gives the standard deviation of the averaged measurements.
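Note: ATP exposure 15 min at 22 °C before imaging.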

The test system of this data set is ATP. The data set can be described thus: switch fluorescence ratio, 500 uM ATP over buffer (Cy3 cluster intensity, sum of 5 cycles each) (fold (ratio)); higher = stronger signal-on switching upon ATP binding; sequences stand for … in TCGTCGGCAGCGTCAGATGTGTATAAGAGACAGTTTTTTTTTTTTTTTTTTTTTTTTT…TC. The note with it: aptamer strand: ATP DNA aptamer (quencher-CACCTGGGGGAGTATTGCGGAGGAAGG + anchor), 100 nM annealed; ATP concentration: 500 uM. In a few lines: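 Cy3-labelled switching-strand clusters on a modified Illumina MiSeq flow-cell were annealed to 100 nM quencher-labelled ATP aptamer, imaged in selection buffer, then imaged after 15 min with 500 uM ATP at 22 °C. Five buffer/ATP cycles ran, with NaOH stripping and re-annealing between them. The fluorescence ratio is summed target-cycle over summed buffer-cycle Cy3 intensity per cluster, averaged per switch-domain sequence. Clusters outside 100-1000 RFU were excluded.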
TTTAGCGTGG: the switch fluorescence ratio was 1.05 ± 0.05.
Consider CGGTGCGGGT, for which the switch fluorescence ratio was 0.992 ± 0.016.
For the sequence GGGTGTTCTT, the switch fluorescence ratio stood at 0.997 ± 0.034.
Consider GCTACGGGTA, for which the switch fluorescence ratio was determined as 1.08 ± 0.031.
As for GGAGGAAGTA, the switch fluorescence ratio stood at 1.03 ± 0.044.
For GTGCCCACGT, the switch fluorescence ratio was found to be 1 ± 0.039.
Consider TAGGTTTAAA, for which the switch fluorescence ratio was 0.991 ± 0.039.
In the case of TTTACATTGT it was 1.01 ± 0.03; in that of CGAAGGGATG, 0.982 ± 0.031.
With TGGGATATAG, the switch fluorescence ratio amounted to 0.994 ± 0.022.
Then AGGTCACAG, with 1 ± 0.03; and CTGTTGTTTG, with 0.9784 ± 0.0016.
Regarding GGGGCTGTTG, the switch fluorescence ratio was determined as 0.966 ± 0.024.
In the case of ACGACAGATG, the switch fluorescence ratio amounted to 0.961 ± 0.046.
Take TTTATGAATG: the switch fluorescence ratio turned out to be 0.9853 ± 0.0042.
Regarding TTTGGATGGC, the switch fluorescence ratio came to 1.02 ± 0.057.
Regarding TTAAGGTAAA, the switch fluorescence ratio is 1.01 ± 0.049.
AAGTGTGACT: the switch fluorescence ratio amounted to 1 ± 0.019.
Take GTTTTTGGTG: the switch fluorescence ratio was 1 ± 0.018.
In the case of CGCTTGGCTC it was 1.078 ± 0.0093; in that of GAGGTTTGCG, 0.965 ± 0.028.
With GCGCATAAGG, the switch fluorescence ratio worked out at 1.039 ± 0.0057.
Consider GCATTTGGCC, for which the switch fluorescence ratio came out at 0.999 ± 0.012.
Turning to ATGTCGTGGG, the switch fluorescence ratio amounted to 1.01 ± 0.037.
Then ATAGCTGGTT, with 0.991 ± 0.018; and GCTTTAAGGG, with 0.995 ± 0.024; and TCATGGAATT, with 1 ± 0.031.
AACTTCCGCA: the switch fluorescence ratio is 1.29 ± 0.038.
Take CTGAGTATGC: the switch fluorescence ratio came out at 1.05 ± 0.026.
Consider TATATGAGAC, for which the switch fluorescence ratio is 1.003 ± 0.0083.
AACATTGTGG: the switch fluorescence ratio is 1.017 ± 0.0063.
Then AGTTGTTTG, with 1.002 ± 0.0099; and TACGTGTAGC, with 1.01 ± 0.011.
Take TTCCGGTTGT: the switch fluorescence ratio is 1.03 ± 0.011.
For the sequence ACGGGGGGTT, the switch fluorescence ratio came out at 1.05 ± 0.085.
In the case of GGGTTTGATG it was 0.984 ± 0.035; in that of ATAGTATGGT, 0.9976 ± 0.0089; in that of TGACGTTAAA, 1.04 ± 0.067.
As to ACAATGGCAC, the switch fluorescence ratio was found to be 1.06 ± 0.029.
As to GCGGCGAGGA, the switch fluorescence ratio was determined as 1.02 ± 0.038.
Regarding CTAGGTGGTT, the switch fluorescence ratio was 0.991 ± 0.04.
In the case of ACGAATAAGG it was 1.03 ± 0.021; in that of TACTTATGGA, 0.984 ± 0.043.
In the case of TTTCTTTT it was 1.042 ± 0.0027.
Take GCGGTTGTCC: the switch fluorescence ratio was 1.0001 ± 0.00078.
For the sequence GAGGGGGTCT, the switch fluorescence ratio was 1.01 ± 0.064.
In the case of GTCGGTTGTG, the switch fluorescence ratio turned out to be 0.974 ± 0.055.
Turning to TGGATCTTCG, the switch fluorescence ratio was determined as 0.9903 ± 0.0077.
Turning to TACGTATTTT, the switch fluorescence ratio is 1.023 ± 0.0035.
In the case of CGGGAAAGTC, the switch fluorescence ratio is 0.996 ± 0.027.
TCTAAGGGAG: the switch fluorescence ratio turned out to be 0.987 ± 0.012.
As to AGGGGGCGGT, the switch fluorescence ratio amounted to 0.959 ± 0.033.
For GCGAGAAGAG, the switch fluorescence ratio came to 1.003 ± 0.0092.
In the case of CATTACGCCG, the switch fluorescence ratio was 1.11 ± 0.042.
As to TTGTTGTATG, the switch fluorescence ratio turned out to be 1.02 ± 0.014.
As for ACGAGGCCAG, the switch fluorescence ratio is 1.23 ± 0.032.
On to CATTGCTATT, for which the switch fluorescence ratio turned out to be 1.02 ± 0.017.
Then TATATTCAGT, with 1.02 ± 0.0099; and AATGGGTGGG, with 1 ± 0.062; and TGTTGCCGGG, with 1.0541 ± 0.00067.
Then CAATGGGTAG, with 0.9989 ± 0.0018; and GGGGACGGAC, with 1.04 ± 0.035; and AATGGATTGG, with 0.997 ± 0.018.
Consider ATTAACTGAA, for which the switch fluorescence ratio is 1.04 ± 0.012.
Take GGTTTGTCGT: the switch fluorescence ratio amounted to 0.957 ± 0.04.
As for CAGTTTTCGG, the switch fluorescence ratio was found to be 1 ± 0.021.
For CGAGGGCAGG, the switch fluorescence ratio was 1.08 ± 0.06.
